Laboratory results reported in patent US6753157B2, “Quantitation of individual protein kinase activity” (Promega Corporation, priority 1994, dated 2004).
Blank lines part the entries; values can stand above or below the substance they belong to. Ends that are not written are not given here. * marks the point of attachment. biotin C6 = biotin C6 moiety, O=C(CCCC[C@@H]1SC[C@@H]2NC(=O)N[C@@H]21)NCCCCCC(=O)*

What was measured:
[1] = system: Ca2+ and phospholipid dependent protein kinase (PKC); experiment: Protein kinase activity of Ca2+ and phospholipid dependent protein kinase with biotinylated neurogranin(28-43), streptavidin-linked disk, 32P; format: biochemical
Description: The protein kinase activity of Ca^2+ and phospholipid dependent protein kinase activity (PKC) was determined in a similar manner to that of PKA described above, except that the biotinylated peptide substrate was a derivative of neurogranin; namely, biotinylated neurogranin(28-43) Chen, S-J, et al., 1993.
The peptide was modified by the addition of biotin containing moiety: *-Ala-Ala-Lys-Ile-Gln-Ala-Ser-Phe-Arg-Gly-His-Met-Ala-Arg-Lys-Lys (Promega Peptide B, SEQ. ID. 2, Mol.Wt. is 2139.6), and was used at a concentration of 100 μM. The enzyme (#V5261, Promega Corporation) was diluted 5× in 100 μg/ml of BSA.
The kinase activity of the […] was determined in a reaction volume of 50 μL consisting of 40 mM Tris. HCl, pH 7.4, 10 mM MgCl2, BSA at 100 μg/ml, and 100 μM of τ-^32P-ATP (sp.act. of 100 cpm/pmol). The activity was determined in the presence and absence of 100 μg/ml of phosphatidylserine, 10 μg/ml of diacylglycerol and 0.4 mM calcium chloride. Reaction was started with the addition of 5 μL of the enzyme and incubated at 25° C. After specified periods of time, reactions were terminated by the addition of 10 μL of terminating solution (see above). Twenty-five μL aliquots were aliquoted on disks and the disks were processed as described above for PKA.

[2] = molecular target: T1, cAMP-dependent protein kinase (PKA) (Bos taurus, UniProt P00517); experiment: Kinase activity of cAMP-dependent protein kinase with biotinylated peptide substrate, streptavidin-linked disk, 32P; format: biochemical; settings: PKA 2 Kemptide units per reaction, 100 μM ATP, 37° C., FIG. 3
T1 construct: V5161 (general description)
Description: The kinase activity of cAMP-dependent protein kinase (PKA) was carried out in duplicates at each of the various peptide substrate concentrations, in a reaction volume (50 μL) containing 40 mM Tris HCl, pH 7.4, 20 mM MgCl2, 100 μM τ-^32P-ATP (sp.act.of 100-200 cpm/pmol), 100 μg/ml of bovine serum albumin (BSA), and the appropriate biotinylated peptide substrate: *-Leu-Arg-Arg-Ala-Ser-Leu-Gly (Promega Peptide A, SEQ. ID. 1, M.Wt of 998.4).
The reaction was started by addition of the appropriate amount of enzyme (Promega #V5221) to give 2 Kemptide units and incubated for 0, 5, and 10 minutes at 37° C. (one Kemptide unit is defined as the amount of enzyme required to catalyze the incorporation of 1 pmol of phosphate into Kemptide substrate in 1 minute). At specified periods of time at the appropriate temperature, the reaction was terminated with the addition of 10 μL of terminating solution as described above.
Twenty-five μL aliquots were withdrawn and spotted in a 12.5 mm (i.d.) streptavidin-linked disk (0.5 mg of streptavidin/disk) and placed in 2M NaCl-containing beaker. After one minute of gently swirling the beaker at room temperature, fresh NaCl was added. This washing procedure was repeated 5 more times at one minute each. […]
Enzyme activity was calculated by determining the radioactivity via liquid scintillation spectrometry. […]

[3] = system: T2, biotinylated neurogranin(28-43) (Promega Peptide B, *-Ala-Ala-Lys-Ile-Gln-Ala-Ser-Phe-Arg-Gly-His-Met-Ala-Arg-Lys-Lys)
T2 sequence: AAKIQASFRGHMARKK

[4] = system: T3, biotinylated Promega Peptide A (*-Leu-Arg-Arg-Ala-Ser-Leu-Gly)
T3 sequence: LRRASLG

substrate concentration at which enzyme activity reached a maximum ([1]; PKC, 25° C., FIG. 7): around 100 μM
PKC activity relative to activity assayed with the phosphocellulose paper method ([1]; biotinylated substrate/streptavidin matrix versus unmodified peptide/phosphocellulose paper): 6-7 fold
Substance: *-Ala-Ala-Lys-Ile-Gln-Ala-Ser-Phe-Arg-Gly-His-Met-Ala-Arg-Lys-Lys ({biotin C6}-AAKIQASFRGHMARKK) [Promega Peptide B, N-terminal Biotin C6 neurogranin-derived peptide substrate for PKC]

Km [2]: 33 µM
Vmax value [2]: 1.45 pmol/min
Substance: *-Leu-Arg-Arg-Ala-Ser-Leu-Gly ({biotin C6}-LRRASLG) [Promega Peptide A, N-terminal Biotin C6 peptide substrate for PKA]

Substance: Ca2+ and phospholipid dependent protein kinase (PKC) (#V5261, Promega Corporation)
substrate concentration at which kinase activity reached a maximum [3]: the activity of the enzyme reached a maximum around 100 µM of modified substrate

Substance: cAMP-dependent protein kinase (PKA), purified enzyme (Promega #V5221)
Km (kinase activity, 32P incorporation into biotinylated peptide captured on streptavidin disks) [4]: a Km Value for the substrate of 33 µM
